Experimental data from US20230255948.

Biological target: GST-OPNR153A (E. coli produced mutant OPN with the arginine in the thrombin cleavage site mutated to alanine) (UniProt P10923)

Question: With Thrombin as the substance, how does the “thrombin cleavage (time course, 10 nM thrombin, SDS-PAGE)” value read?
Answer: resistant to thrombin cleavage
